Among the data in the supplement of paper PMC10724198 are protein stability index values, retold here.

± gives the standard deviation of the averaged measurements.

The subject of this data set is Saccharomyces cerevisiae. Kind of data set: protein stability index of tFT-peptide fusion (C-terminal peptide) (PSI (0-1 scale)); higher = more stable (slower turnover). As to conditions: temperature: 30 C. Here is the method: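 MPS profiling in S. cerevisiae of the yeast C-terminome library: the last 12 aa of each annotated ORF are fused to the C-terminus of a sfGFP-mCherry timer, after a GGGS linker. Cells are FACS-sorted into 8 mCherry/sfGFP bins and deep-sequenced. PSI runs from 0 (unstable) to 1 (stable); wild type and das1Δ backgrounds, two technical replicates each.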

Where [1] appears, read: genetic background: das1 deletion.

For the sequence VSLDNLPGVEKK [SUA7 C-terminal 12 aa], the protein stability index turned out to be 0.682 ± 0.022 under setting [1] and 0.683 ± 0.014 (genetic background: wild type).

For the sequence VSLLLNSLALFF [YGL204C C-terminal 12 aa], the protein stability index was 0.688 ± 0.021 under setting [1] and 0.6623 ± 0.0058 (genetic background: wild type).

For the sequence VSNLEVLEELFP [DPI35 C-terminal 12 aa], the protein stability index runs as follows: under setting [1], 0.722 ± 0.015; (genetic background: wild type) 0.7123 ± 0.0038.

With VTEAESTASAST [BUD20 C-terminal 12 aa], the protein stability index stood at 0.7 ± 0.013 under setting [1] and 0.6926 ± 0.006 (genetic background: wild type).

As for VVEKVSSITNRN [SRF1 C-terminal 12 aa], the protein stability index runs as follows: under setting [1], 0.6869 ± 0.0056; (genetic background: wild type) 0.669 ± 0.065.

Turning to VVPAVLFAFLLV [YDL118W C-terminal 12 aa], the protein stability index is, setting by setting: under setting [1], 0.446 ± 0.0098; (genetic background: wild type) 0.4 ± 0.0053.

For VYENNSYPNSHT [RTT105 C-terminal 12 aa], the protein stability index came to 0.6964 ± 0.0011 under setting [1] and 0.678 ± 0.023 (genetic background: wild type).

In the case of WDKQKALERRSV [CNS1 C-terminal 12 aa], the protein stability index by setting is: under setting [1], 0.723 ± 0.015; (genetic background: wild type) 0.705 ± 0.024.

With WGSIGQKLRRSA [YOL118C C-terminal 12 aa], the protein stability index came out at 0.704 ± 0.012 under setting [1] and 0.728 ± 0.015 (genetic background: wild type).

WLRKWLSTFVHQ [YNL018C C-terminal 12 aa]: the protein stability index under setting [1] came to 0.732 ± 0.042 and the protein stability index (genetic background: wild type) worked out at 0.23 ± 0.022.

Consider WRRSKSISTHLR [YLR366W C-terminal 12 aa], for which the protein stability index by setting is: under setting [1], 0.711 ± 0.0074; (genetic background: wild type) 0.681 ± 0.034.

Sequence WSPLHAAKRHRI [MRPL51 C-terminal 12 aa] had a protein stability index under setting [1] of 0.692 ± 0.014 and a protein stability index (genetic background: wild type) of 0.695 ± 0.02.

In the case of YAGHRFHDGNKL [ERR1 C-terminal 12 aa], the protein stability index under setting [1] stood at 0.726 ± 0.009 and the protein stability index (genetic background: wild type) amounted to 0.737 ± 0.043.

On to YAINSGARFDLS [HUL5 C-terminal 12 aa], for which the protein stability index runs as follows: under setting [1], 0.713 ± 0.025; (genetic background: wild type) 0.687 ± 0.0069.

Take YANAPIEEKPLI [PUN1 C-terminal 12 aa]: the protein stability index runs as follows: under setting [1], 0.702 ± 0.018; (genetic background: wild type) 0.683 ± 0.017.

YDYLINNKTIFD [POF1 C-terminal 12 aa] showed a protein stability index under setting [1] of 0.722 ± 0.022 and a protein stability index (genetic background: wild type) of 0.736 ± 0.022.

For the sequence YEEGESIFGSLF [REV7 C-terminal 12 aa], the protein stability index was 0.71 ± 0.029 under setting [1] and 0.7145 ± 0.0024 (genetic background: wild type).

YENEEIQRKRCI [YOR364W C-terminal 12 aa] yielded a protein stability index under setting [1] of 0.696 ± 0.017 and a protein stability index (genetic background: wild type) of 0.658 ± 0.0062.

With YFSSNISMKTEN [REB1 C-terminal 12 aa], the protein stability index is 0.7171 ± 0.0057 under setting [1] and 0.7373 ± 0.0014 (genetic background: wild type).

Turning to YIKKSAKKGDKN [YHR140W C-terminal 12 aa], the protein stability index by setting is: under setting [1], 0.676 ± 0.032; (genetic background: wild type) 0.65 ± 0.016.

The sequence YKAVSVSANSPE [SOG2 C-terminal 12 aa] registered a protein stability index under setting [1] of 0.689 ± 0.016 and a protein stability index (genetic background: wild type) of 0.673 ± 0.032.

Turning to YKNNWLILQQQD [KSP1 C-terminal 12 aa], the protein stability index by setting is: under setting [1], 0.694 ± 0.066; (genetic background: wild type) 0.703 ± 0.082.

YNGGGKKLDGFW [YSP3 C-terminal 12 aa]: the protein stability index under setting [1] turned out to be 0.7015 ± 0.0059 and the protein stability index (genetic background: wild type) is 0.691 ± 0.025.

With YNKICSLASRVI [MRPL38 C-terminal 12 aa], the protein stability index came out at 0.669 ± 0.0074 under setting [1] and 0.673 ± 0.017 (genetic background: wild type).

In the case of YPVDKEGDIVLE [THP2 C-terminal 12 aa], the protein stability index runs as follows: under setting [1], 0.679 ± 0.0084; (genetic background: wild type) 0.662 ± 0.039.

As for YQCSETSTPRNT [GIC1 C-terminal 12 aa], the protein stability index reads like this: under setting [1], 0.723 ± 0.025; (genetic background: wild type) 0.675 ± 0.012.

With YRIIDCVIAQLP [NVJ3 C-terminal 12 aa], the protein stability index runs as follows: under setting [1], 0.669 ± 0.045; (genetic background: wild type) 0.655 ± 0.046.

For the sequence YSDGRNYKESSI [CSS3 C-terminal 12 aa], the protein stability index reads like this: under setting [1], 0.69 ± 0.037; (genetic background: wild type) 0.656 ± 0.045.

Regarding YSILWSDVYPDS [PDR1 C-terminal 12 aa], the protein stability index runs as follows: under setting [1], 0.7408 ± 0.0068; (genetic background: wild type) 0.754 ± 0.013.

With YTINYETNTVEY [NUP133 C-terminal 12 aa], the protein stability index is, setting by setting: under setting [1], 0.641 ± 0.024; (genetic background: wild type) 0.6455 ± 0.0026.

In the case of YVKEAQSVVTSL [YIR043C C-terminal 12 aa], the protein stability index runs as follows: under setting [1], 0.672 ± 0.013; (genetic background: wild type) 0.659 ± 0.029.

As for YVSHKGFIVEDM [RPL9B C-terminal 12 aa], the protein stability index reads like this: under setting [1], 0.695 ± 0.0088; (genetic background: wild type) 0.6932 ± 0.006.

With YWRKQYPDADIP [YCR007C C-terminal 12 aa], the protein stability index was determined as 0.71925 ± 0.00051 under setting [1] and 0.747 ± 0.025 (genetic background: wild type).
